Positions count from the first letter of the chain named. In names and notes the source's numbering stands.
T1: recombinant human IL-23R/Fc chimera (R&D Systems) (human, UniProt Q5VWK5 24-353)
T1 construct: bought; also called human IL-23R/Fc fusion protein; rhIL23RFc
T1 sequence (looked up): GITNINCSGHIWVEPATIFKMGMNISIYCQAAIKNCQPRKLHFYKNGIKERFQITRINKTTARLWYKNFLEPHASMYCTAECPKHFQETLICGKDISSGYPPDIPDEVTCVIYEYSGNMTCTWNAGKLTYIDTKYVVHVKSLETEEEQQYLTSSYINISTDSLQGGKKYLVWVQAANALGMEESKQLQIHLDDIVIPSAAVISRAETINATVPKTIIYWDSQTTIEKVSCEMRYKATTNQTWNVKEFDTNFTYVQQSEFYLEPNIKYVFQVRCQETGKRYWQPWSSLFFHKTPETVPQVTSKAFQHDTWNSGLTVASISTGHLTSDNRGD

B1: 101-51-1A5 ATRIMER (designed binder)
chain: EPPTQKPKKIVNAKKDVVNTKMFEELKSRLDTLAQEVALLKEQQALQTVCLKGTKVHMKCFLAFTQTKTFHEASEDCISRGGTLSTPQTGSENDALYEYLRQSVGNEAEIWLGLNGSALTNTWVDMTGARIAYKNWENGHEPQPRGGFGYFGENCAVLSGAANGKWFDKRCRDQLPYICQFGIV
B2: 105-20-1B3 ATRIMER (designed binder)
chain: B1 chain with N138T, G139E, H140I, E141T, P142A, R145D
notes: not shown: C-terminal tag: Myc/His6 (pANA4) or HA-StrepII (pANA10); A Ser left at the ompA junction may also sit at the N-terminus
B3: 105-08-2G10 ATRIMER (designed binder)
chain: B1 chain with A118P, N121D, N138T, G139E, H140I, E141T, P142A, R145D
B4: 105-20-1A6 ATRIMER (designed binder)
chain: B1 chain with L119K, N121G, N138T, G139E, H140I, E141T, P142A, R145D, F148W
notes: not shown: C-terminal tag: His/Myc (pANA4) or HA-StrepII (pANA10)
B5: 101-54-4B10 ATRIMER (designed binder)
chain: B1 chain with N138R, G139P, H140P, E141L, P142Y, R145G
modifications: ATRIMER is a homotrimer; one protomer is given.
notes: not shown: C-terminal purification tag: Myc/His6 (pANA4) or HA-StrepII (pANA10)
B6: 105-20-2C4b ATRIMER (designed binder)
chain: B1 chain with A118V, L119K, N121D, N138T, G139E, H140I, E141T, P142A, R145D, F148W
modifications: Forms a homotrimer (ATRIMER) through the tetranectin coiled coil; one protomer is given.
notes: not shown: C-terminal tag
B7: 105-61-4G5 ATRIMER (designed binder)
chain: B1 chain with A118P, N138T, G139E, H140I, E141T, P142A, R145D, Y150V
notes: as for B2
B8: 105-20-1H7 ATRIMER (designed binder)
chain: B1 chain with L119G, N138T, G139E, H140I, E141T, P142A, R145D
B9: 105-20-2C11 ATRIMER (designed binder)
chain: B1 chain with A118V, L119R, N121D, N138T, G139E, H140I, E141T, P142A, R145D, F148W
B10: 105-20-1H1 ATRIMER (designed binder)
chain: B1 chain with A118P, N138T, G139E, H140I, E141T, P142A, R145D, F148W
B11: 105-08-2H3 ATRIMER (designed binder)
chain: B1 chain with A118S, N138T, G139E, H140I, E141T, P142A, R145D, F148W
modifications: Homotrimer of the given chain (ATRIMER complex).
B12: 105-08-1A3 ATRIMER (designed binder)
chain: EPPTQKPKKIVNAKKDVVNTKMFEELKSRLDTLAQEVALLKEQQALQTVCLKGTKVHMKCFLAFTQTKTFHEASEDCISRGGTLSTPQTGSENDALYEYLRQSVGNEAEIWLGLNGSPRTDTWVDMTGARIAYKNWETEITAQPDGGWGVFGENCAVLSGAANGKWFDKRCRDQLPYICQFGIV
notes: as for B2
B13: 105-78-2D1 ATRIMER (designed binder)
chain: B12 chain with P118L, D121H, W148F
notes: as for B2
B14: 105-61-4G3 ATRIMER (designed binder)
chain: B12 chain with P118L, W148F
notes: as for B5
B15: 105-08-2H2 ATRIMER (designed binder)
chain: B12 chain with R119T, V150Y
B16: 101-51-1A9 ATRIMER (designed binder)
chain: B1 chain with N138P, G139A, H140R, E141Q, R145G
modifications: ATRIMER is a homotrimer; one protomer is given.
notes: as for B5
B17: 105-08-2H6 ATRIMER (designed binder)
chain: B12 chain with R119V, D121G, W148F, V150Y
B18: 105-20-2C7 ATRIMER (designed binder)
chain: B12 chain with P118V, R119T, W148F, V150Y
B19: 105-08-2G6 ATRIMER (designed binder)
chain: B12 chain with P118L, R119L, V150Y
notes: as for B4
B20: 105-20-2F10 ATRIMER (designed binder)
chain: B12 chain with P118A, W148F, V150Y
modifications: Forms a homotrimer (ATRIMER) through the tetranectin coiled coil; one protomer is given.
notes: not shown: C-terminal tag
B21: 101-113-6C102 ATRIMER (designed binder)
chain: EPPTQKPKKIVNAKKDVVNTKMFEELKSRLDTLAQEVALLKEQQALQTVCLKGTKVHMKCFLAFTQTKTFHEASEDCISRGGTLSTPQTGSENDALYEYLRQSVGNEAEIWLGLNGSNVTQTWVDMTGARIAYKNWEPPPPHHPQGGFGVFGENCAVLSGAANGKWFDKRCRDQLPYICQFGIV
modifications: ATRIMER is a homotrimer; one protomer is given.
notes: as for B5
B22: 105-08-2H10 ATRIMER (designed binder)
chain: B12 chain with P118N, R119H, W148F, V150Y
notes: as for B4
B23: 105-20-1B4 ATRIMER (designed binder)
chain: B12 chain with P118S, D121N, V150Y
modifications: Homotrimer of the given chain (ATRIMER complex).
B24: 105-20-2G12 ATRIMER (designed binder)
chain: B12 chain with D121N, W148F, V150Y
notes: as for B2
B25: 105-08-2G4 ATRIMER (designed binder)
chain: B12 chain with D121G, W148F, V150Y
notes: as for B4
B26: 105-20-2C4a ATRIMER (designed binder)
chain: B12 chain with P118A, R119K, V150Y
notes: as for B4
B27: 105-08-2H4 ATRIMER (designed binder)
chain: B12 chain with P118V, W148F, V150Y
B28: 105-59-3A5 ATRIMER (designed binder)
chain: B12 chain with P118L, R119L, D121N, W148F
notes: as for B2
B29: 105-20-2G5 ATRIMER (designed binder)
chain: B12 chain with P118R, V150Y
notes: as for B4
B30: 105-08-2H11 ATRIMER (designed binder)
chain: B12 chain with V150Y
B31: 105-08-2H12 ATRIMER (designed binder)
chain: B12 chain with D121E, W148F, V150Y
modifications: Homotrimer of the given chain (ATRIMER complex).
B32: 105-59-3B5 ATRIMER (designed binder)
chain: B12 chain with R119I, W148F
notes: as for B5
B33: 105-08-2G7 ATRIMER (designed binder)
chain: B12 chain with R119K, D121G, W148F, V150Y
notes: as for B4
B34: 105-78-2E6 ATRIMER (designed binder)
chain: B12 chain with P118L, D121N, W148F
notes: as for B5
B35: 105-20-2A3 ATRIMER (designed binder)
chain: B12 chain with R119I, D121N, W148F, V150Y
notes: as for B2
B36: B9B ATRIMER (designed binder)
chain: B12 chain with G116A, S117P, R119D, T120L, D121G, T122L, F151W
modifications: Forms a homotrimer through the tetranectin coiled coil; one protomer is given.
notes: also called 056-41.B9B
B37: C3C ATRIMER (designed binder)
chain: B12 chain with G116A, S117N, P118R, T120R, D121T, T122M, W148M, F151W
modifications: Forms a homotrimer through the tetranectin coiled coil; one protomer is given.
notes: also called 001-89.C3C
B38: A4A ATRIMER (designed binder)
chain: EPPTQKPKKIVNAKKDVVNTKMFEELKSRLDTLAQEVALLKEQQALQTVCLKGTKVHMKCFLAFTQTKTFHEASEDCISRGGTLSTPQTGSENDALYEYLRQSVGNEAEIWLGLNWTLAKNLWVDMTGARIAYKNWETEITAQPDGGLFGRGENCAVLSGAANGKWFDKRCRDQLPYICQFGIV
modifications: Forms a homotrimer through the tetranectin coiled coil; one protomer is given.
notes: also called 001-87.A4A

Target: T1, recombinant human IL-23R/Fc chimera …
Test: competition ELISA against IL-23

Row | Binder | Ratio IC50 to 056-53.H4E IC50
1 | B1 | 1 ratio
2 | B2 | 1.2 ratio
3 | B3 | 1.8 ratio
4 | B4 | 6.6 ratio
5 | B5 | 1.4 ratio
6 | B6 | 4.2 ratio
7 | B7 | 1 ratio
8 | B8 | 2.1 ratio
9 | B9 | 4.8 ratio
10 | B10 | 1.8 ratio
11 | B11 | 2.9 ratio
12 | B12 | 1.1 ratio
13 | B13 | 1.3 ratio
14 | B14 | 0.8 ratio
15 | B15 | 4 ratio
16 | B16 | 2.2 ratio
17 | B17 | 2 ratio
18 | B18 | 3.5 ratio

Row | Binder | Ratio IC50 to 056-53.H4E IC50
19 | B19 | 5.2 ratio
20 | B20 | 4.2 ratio
21 | B21 | 2 ratio
22 | B22 | 6.5 ratio
23 | B23 | 3 ratio
24 | B24 | 1 ratio
25 | B25 | 2.5 ratio
26 | B26 | 2.9 ratio
27 | B27 | 5 ratio
28 | B28 | 1.2 ratio
29 | B29 | 5.3 ratio
30 | B30 | 4.3 ratio
31 | B31 | 3.3 ratio
32 | B32 | 0.8 ratio
33 | B33 | 2.5 ratio
34 | B34 | 1 ratio
35 | B35 | 1.2 ratio

Target: T1, recombinant human IL-23R/Fc chimera …
Test: SPR (Biacore), captured IL-23R/Fc, ATRIMER
Description: A Biacore 3000 biosensor (GE Healthcare) was used to evaluate the interaction of human IL-23R and receptor binders. Immobilization of an anti-human IgG Fc antibody (GE Heathcare) to the CM5 chip (Biacore) was performed using standard amine coupling chemistry, and this modified surface was used to capture a recombinant human IL-23R/Fc fusion protein (R&D Systems). A low-density receptor surface, less than 200 RU, was used for all of the analyses. ATRIMER™ polypeptide complex dilutions (1-500 nM) were injected over the IL-23R surface at 30 μl/min and kinetic constants were derived from the sensorgram data using the Biaevaluation software (version 3.1, GE Healthcare). Data collection was 3 minutes for the association and 5 minutes for dissociation. The anti-human IgG surface was regenerated with a 30 s pulse of 3M magnesium chloride. All sensorgrams were double-referenced against an activated and blocked flow-cell as well as buffer injections.

Row | Binder | Ka | Kd | koff | kon
36 | B1 | 1.71e+09 M⁻¹ | 0.584 nM | 0.000289 s⁻¹ | 495000 M⁻¹ s⁻¹
37 | B5 | 1.11e+09 M⁻¹ | 0.897 nM | 0.000429 s⁻¹ | 479000 M⁻¹ s⁻¹
38 | B12 | 2.11e+09 M⁻¹ | 0.473 nM | 0.000348 s⁻¹ | 735000 M⁻¹ s⁻¹
39 | B16 | 1.05e+09 M⁻¹ | 0.955 nM | 0.000329 s⁻¹ | 345000 M⁻¹ s⁻¹
40 | B21 | 9.62e+08 M⁻¹ | 1.04 nM | 0.000283 s⁻¹ | 271000 M⁻¹ s⁻¹
41 | B36 | 1.94e+08 M⁻¹ | 5.15 nM | 0.000478 s⁻¹ | 92800 M⁻¹ s⁻¹
42 | B37 | 1.2e+08 M⁻¹ | 8.34 nM | 0.000483 s⁻¹ | 57900 M⁻¹ s⁻¹
43 | B38 | 1.24e+08 M⁻¹ | 8.08 nM | 0.000409 s⁻¹ | 50600 M⁻¹ s⁻¹
44 | B35 | 1.32e+09 M⁻¹ | 0.759 nM | 0.000312 s⁻¹ | 412000 M⁻¹ s⁻¹

Reference: patent US20110086770A1 (ANAPHORE, published 2011)
